Sequences and labels used below:
T1: Boi1 SH3 (BOI1_YEAST), P38041
T1 chain: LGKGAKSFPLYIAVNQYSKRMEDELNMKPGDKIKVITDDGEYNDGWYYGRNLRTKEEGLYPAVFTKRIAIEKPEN

T2: Boi2 SH3 (BOI2_YEAST), P39969
T2 chain: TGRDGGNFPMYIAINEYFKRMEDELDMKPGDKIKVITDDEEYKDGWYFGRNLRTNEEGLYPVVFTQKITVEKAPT

T3: Myo5 SH3 (MYO5_YEAST), Q04439
T3 chain: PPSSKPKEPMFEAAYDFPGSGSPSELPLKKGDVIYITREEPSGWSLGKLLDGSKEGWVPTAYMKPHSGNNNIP

T4: Rvs167 SH3 (RV167_YEAST), P39743
T4 chain: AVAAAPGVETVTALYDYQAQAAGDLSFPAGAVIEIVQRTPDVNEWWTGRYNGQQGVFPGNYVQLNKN

T5: Yfr024 SH3 (LSB3_YEAST), P43603
T5 chain: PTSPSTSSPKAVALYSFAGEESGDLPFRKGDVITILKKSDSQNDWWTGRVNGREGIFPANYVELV

T6: Yhr016c SH3 (YSC84_YEAST), P32793
T6 chain: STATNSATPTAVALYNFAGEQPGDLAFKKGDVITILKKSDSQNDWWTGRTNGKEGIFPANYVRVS

The target of one assay is T1, Boi1 SH3 (BOI1_YEAST), P38041. Kind of assay: SPOT array.
As for FENRKHQPFTPKGM [YKL171W 669-682], the normalised SPOT signal, Boehringer light units (BLU); mean over the file's lines of this peptide stood at 616.
Same read-out and setting: as for ETSLRVLPIAPKIF [YDL231C 393-406], the figure is 426; as for ETKKKWQPLPPEPL [YOR042W 368-381], 116; as for FEYSKYRPLTPSSE [YOR001W 401-414], 73.8.
Molecule ETTTRETPLPPIPA [YPL207W 797-810] displayed a normalised SPOT signal, Boehringer light units (BLU); mean over the file's lines of this peptide of 85.
On the same count and under the same terms, the result for FEEDKMTPSTPVRS [YJR092W 847-860] reads 12; that for ERDGRGVPLGPRNH [YGL023C 22-35], 370.

In a further assay the target is T2, Boi2 SH3 (BOI2_YEAST), P39969. Kind of assay: SPOT array.
FENRKHQPFTPKGM [YKL171W 669-682] gave a normalised SPOT signal, Boehringer light units (BLU); mean over the file's lines of this peptide of 0.7.
Take ETSLRVLPIAPKIF [YDL231C 393-406]: the normalised SPOT signal, Boehringer light units (BLU); mean over the file's lines of this peptide stood at 47.6.
As for ETKKKWQPLPPEPL [YOR042W 368-381], the normalised SPOT signal, Boehringer light units (BLU); mean over the file's lines of this peptide is 13.2.
Still for that read-out and setting: as for FEYSKYRPLTPSSE [YOR001W 401-414], the figure is 111; as for ETTTRETPLPPIPA [YPL207W 797-810], 43.2; as for FEEDKMTPSTPVRS [YJR092W 847-860], 7.9.
With ERDGRGVPLGPRNH [YGL023C 22-35], the normalised SPOT signal, Boehringer light units (BLU); mean over the file's lines of this peptide stood at 25.

The next assay deals with T3, Myo5 SH3 (MYO5_YEAST), Q04439. Kind of assay: SPOT array.
FENRKHQPFTPKGM [YKL171W 669-682] yielded a normalised SPOT signal, Boehringer light units (BLU); mean over the file's lines of this peptide of 211.
Same read-out and setting: as for ETSLRVLPIAPKIF [YDL231C 393-406], the figure is 548; as for ETKKKWQPLPPEPL [YOR042W 368-381], 256; as for FEYSKYRPLTPSSE [YOR001W 401-414], 143.
In turn, ETTTRETPLPPIPA [YPL207W 797-810] returned a normalised SPOT signal, Boehringer light units (BLU); mean over the file's lines of this peptide of 178.
On the same count and under the same terms, the result for FEEDKMTPSTPVRS [YJR092W 847-860] reads 248; that for ERDGRGVPLGPRNH [YGL023C 22-35], 121.

For the next assay, the target named is T4, Rvs167 SH3 (RV167_YEAST), P39743. Kind of assay: SPOT array.
The molecule FENRKHQPFTPKGM [YKL171W 669-682] showed a normalised SPOT signal, Boehringer light units (BLU); mean over the file's lines of this peptide of 148.
On the same count and under the same terms, as for ETSLRVLPIAPKIF [YDL231C 393-406], the figure is 766.
ETKKKWQPLPPEPL [YOR042W 368-381] gave a normalised SPOT signal, Boehringer light units (BLU); mean over the file's lines of this peptide of 28.5.
On the same count and under the same terms, as for FEYSKYRPLTPSSE [YOR001W 401-414], the figure is 436; as for ETTTRETPLPPIPA [YPL207W 797-810], 167.
Same read-out and setting: as for FEEDKMTPSTPVRS [YJR092W 847-860], the figure is 59.7; as for ERDGRGVPLGPRNH [YGL023C 22-35], 35.7.

The target in another assay is Sho1 SH3 (SHO1_YEAST), P40073. Kind of assay: SPOT array.
Sho1 SH3 (SHO1_YEAST), P40073, sequence (P40073 295-366): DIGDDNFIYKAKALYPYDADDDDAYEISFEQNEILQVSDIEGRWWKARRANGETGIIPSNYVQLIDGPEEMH
For the molecule FENRKHQPFTPKGM [YKL171W 669-682], the normalised SPOT signal, Boehringer light units (BLU); mean over the file's lines of this peptide turned out to be 126.
ETSLRVLPIAPKIF [YDL231C 393-406] gave a normalised SPOT signal, Boehringer light units (BLU); mean over the file's lines of this peptide of 2880.
Still for that read-out and setting: the result for ETKKKWQPLPPEPL [YOR042W 368-381] reads 436; that for FEYSKYRPLTPSSE [YOR001W 401-414], 114; that for ETTTRETPLPPIPA [YPL207W 797-810], 1020.
The same measure, in the same setting: as for FEEDKMTPSTPVRS [YJR092W 847-860], the figure is 65.
On the same count and under the same terms, the result for ERDGRGVPLGPRNH [YGL023C 22-35] reads 38.

A further assay has as its target T5, Yfr024 SH3 (LSB3_YEAST), P43603. In words: SPOT array.
Regarding FENRKHQPFTPKGM [YKL171W 669-682], the normalised SPOT signal, Boehringer light units (BLU); mean over the file's lines of this peptide was 574.
Same read-out and setting: the result for ETSLRVLPIAPKIF [YDL231C 393-406] reads 399.
For the molecule ETKKKWQPLPPEPL [YOR042W 368-381], the normalised SPOT signal, Boehringer light units (BLU); mean over the file's lines of this peptide is 30.2.
The same measure, in the same setting: as for FEYSKYRPLTPSSE [YOR001W 401-414], the figure is 485.
The same measure, in the same setting: the result for ETTTRETPLPPIPA [YPL207W 797-810] reads 108; that for FEEDKMTPSTPVRS [YJR092W 847-860], 11100.
On the same count and under the same terms, as for ERDGRGVPLGPRNH [YGL023C 22-35], the figure is 643.

The next assay addresses T6, Yhr016c SH3 (YSC84_YEAST), P32793. Kind of assay: SPOT array.
FENRKHQPFTPKGM [YKL171W 669-682] displayed a normalised SPOT signal, Boehringer light units (BLU); mean over the file's lines of this peptide of 33.1.
Still for that read-out and setting: the result for ETSLRVLPIAPKIF [YDL231C 393-406] reads 55.1.
On the same count and under the same terms, the result for ETKKKWQPLPPEPL [YOR042W 368-381] reads 2.5; that for FEYSKYRPLTPSSE [YOR001W 401-414], 288; that for ETTTRETPLPPIPA [YPL207W 797-810], 71.1.
The same measure, in the same setting: the result for FEEDKMTPSTPVRS [YJR092W 847-860] reads 3920.
For ERDGRGVPLGPRNH [YGL023C 22-35], the normalised SPOT signal, Boehringer light units (BLU); mean over the file's lines of this peptide is 50.2.
